Test results published in the supplement of paper PMC11246515.
± gives the standard deviation of the averaged measurements.

Assay: total protein half-life in vivo (active degradation + dilution); higher = more stable protein
[1] = E. coli NCM3722 delta-clpP delta-lon delta-hslV, growth: N-lim chemostat, doubling time 6 h
[2] = E. coli NCM3722 delta-clpP, growth: N-lim chemostat, doubling time 6 h
[3] = E. coli NCM3722 delta-lon, growth: N-lim chemostat, doubling time 6 h
[4] = E. coli NCM3722 delta-smpB, growth: N-lim chemostat, doubling time 6 h
[5] = wild type E. coli NCM3722, growth: C-lim chemostat, doubling time 3 h
[6] = wild type E. coli NCM3722, growth: C-lim chemostat, doubling time 6 h
[7] = wild type E. coli NCM3722, growth: C-lim chemostat, doubling time 12 h
[8] = wild type E. coli NCM3722, growth: N-lim chemostat, doubling time 6 h
[9] = wild type E. coli NCM3722, growth: N-lim chemostat, doubling time 12 h
[10] = wild type E. coli NCM3722, growth: P-lim chemostat, doubling time 6 h
[11] = wild type E. coli NCM3722, growth: P-lim chemostat, doubling time 12 h
[12] = E. coli NCM3722 delta-hslV, growth: N-lim chemostat, doubling time 6 h

| Sequence | total protein half-life in vivo [1] [h] | total protein half-life in vivo [2] [h] | total protein half-life in vivo [3] [h] | total protein half-life in vivo [4] [h] | total protein half-life in vivo [5] [h] | total protein half-life in vivo [6] [h] | total protein half-life in vivo [7] [h] | total protein half-life in vivo [8] [h] | total protein half-life in vivo [9] [h] | total protein half-life in vivo [10] [h] | total protein half-life in vivo [11] [h] | total protein half-life in vivo [12] [h] |
| --- | --- | --- | --- | --- | --- | --- | --- | --- | --- | --- | --- | --- |
| MKTKVAAIYGKRDVRLRVFELPEITDNELLVSVISDSVCLSTWKAALLGSEHKRVPDDLENHPVITGHECAGVIVEVGKNLTGKYKKGQRFVLQPAMGLPSGYSAGYSYEYFGGNATYMIIPEIAINLGCVLPYHGSYFAAASLAEPMCCIIGAYHANYHTTQYVYEHRMGVKPGGNIALLACAGPMGIGAIDYAINGGIQPSRVVVVDIDDKRLAQVQKLLPVELAASKGIELVYVNTKGMSDPVQMLRALTGDAGFDDIFVYAAVPAVVEMADELLAEDGCLNFFAGPTDKNFKVPFNFYNVHYNSTHVVGTSGGSTDDMKEAIALSATGQLQPSFMVTHIGGLDAVPETVLNLPDIPGGKKLIYNGVTMPLTAIADFAEKGKTDPLFKELARLVEETHGIWNEQAEKYLLAQFGVDIGEAAQ | 6.04 ± 0.11 | – | – | – | – | – | – | – | – | – | – | – |
| MKTKVILSQQMASAIIAAGQEEAQKNNWSVSIAVADDGGHLLALSRMDDCAPIAAYISQEKARTAALGRRETKGYEEMVNNGRTAFVTAPLLTSLEGGVPVVVDGQIIGAVGVSGLTGAQDAQVAKAAAAVLAK [P0AEQ1] | 4.93 ± 0.46 | 4.12 ± 0.23 | 4.27 ± 0.26 | 4.21 ± 0.32 | 3.04 ± 0.057 | 5.267 ± 0.02 | 9.62 ± 0.24 | 4.29 ± 0.12 | 5.98 | 5.43 ± 0.44 | 11.6 ± 0.93 | – |
| MKTLATIGDNCVDIYPQLNKAFSGGNAVNVAVYCTRYGIQPGCITWVGDDDYGTKLKQDLARMGVDISHVHTKHGVTAQTQVELHDNDRVFGDYTEGVMADFALSEEDYAWLAQYDIVHAAIWGHAEDAFPQLHAAGKLTAFDFSDKWDSPLWQTLVPHLDFAFASAPQEDETLRLKMKAIVARGAGTVIVTLGENGSIAWDGAQFWRQAPEPVTVIDTMGAGDSFIAGFLCGWSAGMTLPQAIAQGTACAAKTIQYHGAW | 5.37 | 3.97 | > 8 | 3.48 | 1.68 | 3.27 | 7.21 ± 0.47 | – | – | – | – | 4.2 ± 0.26 |
| MKTSDNERIKYEITGQAVLQILRMKINFSLQTLIKQLLVMKSAEEDAFRRDLIDSIIRDFSNSDSGGPNRRTATADNKSMFNGKKINRIH | – | – | – | – | – | – | – | – | – | – | 3.79 | – |
| MKTSLFKSLYFQVLTAIAIGILLGHFYPEIGEQMKPLGDGFVKLIKMIIAPVIFCTVVTGIAGMESMKAVGRTGAVALLYFEIVSTIALIIGLIIVNVVQPGAGMNVDPATLDAKAVAVYADQAKDQGIVAFIMDVIPASVIGAFASGNILQVLLFAVLFGFALHRLGSKGQLIFNVIESFSQVIFGIINMIMRLAPIGAFGAMAFTIGKYGVGTLVQLGQLIICFYITCILFVVLVLGSIAKATGFSIFKFIRYIREELLIVLGTSSSESALPRMLDKMEKLGCRKSVVGLVIPTGYSFNLDGTSIYLTMAAVFIAQATNSQMDIVHQITLLIVLLLSSKGAAGVTGSGFIVLAATLSAVGHLPVAGLALILGIDRFMSEARALTNLVGNGVATIVVAKWVKELDHKKLDDVLNNRAPDGKTHELSS [P0A830] | – | – | – | 4.23 | – | 5.59 ± 0.43 | 10.7 ± 0.59 | 5.77 | – | 5.05 | 8.47 | 3.58 |
| MKTTAKLSFMMFVEWFIWGAWFVPLWLWLSKSGFSAGEIGWSYACTAIAAILSPILVGSITDRFFSAQKVLAVLMFAGALLMYFAAQQTTFAGFFPLLLAYSLTYMPTIALTNSIAFANVPDVERDFPRIRVMGTIGWIASGLACGFLPQILGYADISPTNIPLLITAGSSALLGVFAFFLPDTPPKSTGKMDIKVMLGLDALILLRDKNFLVFFFCSFLFAMPLAFYYIFANGYLTEVGMKNATGWMTLGQFSEIFFMLALPFFTKRFGIKKVLLLGLVTAAIRYGFFIYGSADEYFTYALLFLGILLHGVSYDFYYVTAYIYVDKKAPVHMRTAAQGLITLCCQGFGSLLGYRLGGVMMEKMFAYQEPVNGLTFNWSGMWTFGAVMIAIIAVLFMIFFRESDNEITAIKVDDRDIALTQGEVK | – | – | – | – | – | 4.97 ± 0.24 | 9.17 | – | – | – | – | – |
| MKTVRESTTLYNFLGSHNPYWRLTESSDVLRFSTTETTEPDRTLQLSAEQAARIREMTVITSSLMMSLTVDESDLSVHLVGRKINKREWAGNASAWHDTPAVARDLSHGLSFAEQVVSEAHSAIVILDSRGNIQRFNRLCEDYTGLKEHDVIGQSVFKLFMSRREAAASRRNNRVFFRSGNAYEVELWIPTCKGQRLFLFRNKFVHSGSGKNEIFLICSGTDITEERRAQERLRILANTDSITGLPNRNAMQDLIDHAINHADNNKVGVVYLDLDNFKKVNDAYGHLFGDQLLRDVSLAILSCLEHDQVLARPGGDEFLVLASNTSQSALEAMASRILTRLRLPFRIGLIEVYTSCSVGIALSPEHGSDSTAIIRHADTAMYTAKEGGRGQFCVFTPEMNQRVFEYLWLDTNLRKALENDQLVIHYQPKITWRGEVRSLEALVRWQSPERGLIPPLDFISYAEESGLIVPLGRWVILDVVRQVAKWRDKGINLRVAVNISARQLADQTIFTALKQVLQELNFEYCPIDVELTESCLIENDELALSVIQQFSQLGAQVHLDDFGTGYSSLSQLARFPIDAIKLDQVFVRDIHKQPVSQSLVRAIVAVAQALNLQVIAEGVESAKEDAFLTKNGINERQGFLFAKPMPAVAFERWYKRYLKRA | 6.59 ± 1.2 | 2.14 | 3.107 ± 0.019 | 1.94 ± 0.029 | 1.58 ± 0.59 | 4.6 ± 2.3 | 5.35 | 3.27 ± 0.56 | 3.63 | – | – | 2.36 ± 0.18 |
| MKTVTVKDLVIGTGAPKIIVSLMAKDIASVKSEALAYREADFDILEWRVDHYADLSNVESVMAAAKILRETMPEKPLLFTFRSAKEGGEQAISTEAYIALNRAAIDSGLVDMIDLELFTGDDQVKETVAYAHAHDVKVVMSNHDFHKTPEAEEIIARLRKMQSFDADIPKIALMPQSTSDVLTLLAATLEMQEQYADRPIITMSMAKTGVISRLAGEVFGSAATFGAVKKASAPGQISVNDLRTVLTILHQA | 3.99 ± 0.25 | 4.15 ± 0.66 | 4.3 ± 0.52 | 3.62 ± 0.46 | > 4 | 5.56 ± 1 | 9.4 ± 0.9 | 3.68 ± 0.14 | 5.5 ± 0.19 | 5.38 ± 0.21 | 11 ± 0.46 | 3.51 ± 0.0088 |
